Measurements reported in paper PMC2475632.

Target: T1, Dpo4 (DNA polymerase IV) (Sulfolobus solfataricus, UniProt Q97W02 1-352)
T1 sequence: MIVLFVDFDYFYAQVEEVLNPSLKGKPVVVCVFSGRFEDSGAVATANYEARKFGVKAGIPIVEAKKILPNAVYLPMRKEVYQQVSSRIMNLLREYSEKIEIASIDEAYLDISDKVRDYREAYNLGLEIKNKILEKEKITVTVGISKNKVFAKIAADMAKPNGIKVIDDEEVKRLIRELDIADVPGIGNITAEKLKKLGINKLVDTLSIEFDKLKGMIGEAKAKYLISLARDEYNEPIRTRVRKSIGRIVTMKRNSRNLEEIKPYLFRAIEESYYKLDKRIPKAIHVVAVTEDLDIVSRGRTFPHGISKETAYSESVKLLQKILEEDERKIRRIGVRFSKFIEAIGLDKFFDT
Experiment: EMSA

B1: 21-mer/44DDP (dsDNA)
DNA 1: GTCCCTGTTCGGGCGCCAGGA
DNA 2: GATCACGAGACTAGCCTCTGGTCTCCTGGCGCCCGAACAGGGAC
modifications: cisplatin-d(GpG) intrastrand cross-link at template G20-G21 (5' to 3' numbering; GG inferred from primer 23/24 sites)
  Kd: 8 ± 1 nM

B2: 22-mer/44CTL (dsDNA)
DNA 1: GTCCCTGTTCGGGCGCCAGGAG
DNA 2: B1 DNA 2
  Kd: 16 ± 3 nM

B3: 24-mer/44DDP (dsDNA)
DNA 1: GTCCCTGTTCGGGCGCCAGGAGAC
DNA 2: B1 DNA 2
modifications: cisplatin-d(GpG) intrastrand cross-link at template G20-G21
  Kd: 26 ± 3 nM

B4: 23-mer/44CTL (dsDNA)
DNA 1: GTCCCTGTTCGGGCGCCAGGAGA
DNA 2: B1 DNA 2
  Kd: 17 ± 2 nM

B5: 21-mer/44CTL (dsDNA)
DNA 1: GTCCCTGTTCGGGCGCCAGGA
DNA 2: B1 DNA 2
  Kd: 18 ± 3 nM

B6: 27-mer/44CTL (dsDNA)
DNA 1: GTCCCTGTTCGGGCGCCAGGAGACCAG
DNA 2: B1 DNA 2
  Kd: 13 ± 4 nM

B7: 26-mer/44CTL (dsDNA)
DNA 1: GTCCCTGTTCGGGCGCCAGGAGACCA
DNA 2: B1 DNA 2
  Kd: 11 ± 2 nM

B8: 25-mer/44DDP (dsDNA)
DNA 1: GTCCCTGTTCGGGCGCCAGGAGACC
DNA 2: B1 DNA 2
modifications: cisplatin-d(GpG) intrastrand cross-link at template G20-G21
  Kd: 17 ± 4 nM

B9: 23-mer/44DDP (dsDNA)
DNA 1: GTCCCTGTTCGGGCGCCAGGAGA
DNA 2: B1 DNA 2
modifications: cisplatin-d(GpG) intrastrand cross-link at template G20-G21
  Kd: 56 ± 9 nM

B10: 26-mer/44DDP (dsDNA)
DNA 1: GTCCCTGTTCGGGCGCCAGGAGACCA
DNA 2: B1 DNA 2
modifications: cisplatin-d(GpG) intrastrand cross-link at template G20-G21
  Kd: 12 ± 2 nM

B11: 24-mer/44CTL (dsDNA)
DNA 1: GTCCCTGTTCGGGCGCCAGGAGAC
DNA 2: B1 DNA 2
  Kd: 8 ± 1 nM

B12: 22-mer/44DDP (dsDNA)
DNA 1: GTCCCTGTTCGGGCGCCAGGAG
DNA 2: B1 DNA 2
modifications: cisplatin-d(GpG) intrastrand cross-link at template G20-G21
  Kd: 21 ± 4 nM

B13: 25-mer/44CTL (dsDNA)
DNA 1: GTCCCTGTTCGGGCGCCAGGAGACC
DNA 2: B1 DNA 2
  Kd: 5 ± 1 nM

B14: 27-mer/44DDP (dsDNA)
DNA 1: GTCCCTGTTCGGGCGCCAGGAGACCAG
DNA 2: B1 DNA 2
modifications: cisplatin-d(GpG) intrastrand cross-link at template G20-G21
  Kd: 17 ± 3 nM
